According to article PMC3176292:

T1: Flag-Smad4, full length, Q13485
T1 chain: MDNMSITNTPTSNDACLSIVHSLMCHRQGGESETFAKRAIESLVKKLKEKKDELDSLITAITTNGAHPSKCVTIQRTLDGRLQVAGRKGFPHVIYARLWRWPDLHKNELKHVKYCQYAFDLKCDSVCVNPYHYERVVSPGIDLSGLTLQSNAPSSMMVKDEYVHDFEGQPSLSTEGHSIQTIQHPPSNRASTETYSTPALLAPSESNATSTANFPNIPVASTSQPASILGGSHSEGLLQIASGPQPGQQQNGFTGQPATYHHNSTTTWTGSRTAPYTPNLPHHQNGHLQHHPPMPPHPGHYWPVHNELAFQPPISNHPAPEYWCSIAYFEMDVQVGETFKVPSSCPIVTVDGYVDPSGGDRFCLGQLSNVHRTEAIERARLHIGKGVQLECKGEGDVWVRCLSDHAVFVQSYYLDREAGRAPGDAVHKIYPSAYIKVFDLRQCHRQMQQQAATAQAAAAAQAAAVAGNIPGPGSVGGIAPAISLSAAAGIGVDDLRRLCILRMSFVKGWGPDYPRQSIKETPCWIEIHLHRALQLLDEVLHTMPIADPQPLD


Assays:
[1] = target: T1, Flag-Smad4, full length, Q13485; test: co-IP; LUMIER: Renilla luciferase-Smad3 and Flag-tagged partner co-expressed with constitutively active Alk5 in HEK-293; Flag protein captured from cleared lysate (TNE: 10 mM Tris-HCl pH 7.8, 150 mM NaCl, 1 mM EDTA, 1% Igepal CA-630) on anti-Flag 96-well plates, 2 h at 4 °C; co-precipitated Renilla luciferase activity, TrxGA background subtracted, percent of wild-type Smad3; details: remark: other sources report otherwise
[2] = target: T1, Flag-Smad4, full length, Q13485; test: co-IP; LUMIER as a1 but without co-expression of the activated Alk5 kinase (Smad3 not phosphorylated); percent of phosphorylated wild-type Smad3; details: remark: other sources report otherwise

percent binding relative to wild-type Smad3 [1] [%]	percent binding relative to wild-type Smad3 [2] [%]	Binder
100		Renilla luciferase-Smad3 wild type, co-expressed with constitutively active Alk5 (phosphorylated Smad3), P84022 1-425 (natural protein, here or on the partner: phosphorylated by the co-expressed activated Alk5 kinase (sites not given)) MSSILPFTPPIVKRLLGWKKGEQNGQEEKWCEKAVKSLVKKLKKTGQLDELEKAITTQNVNTKCITIPRSLDGRLQVSHRKGLPHVIYCRLWRWPDLHSHHELRAMELCEFAFNMKKDEVCVNPYHYQRVETPVLPPVLVPRHTEIPAEFPPLDDYSHSIPENTNFPAGIEPQSNIPETPPPGYLSEDGETSDHQMNHSMDAGSPNLSPNPMSPAHNNLDLQPVTYCEPAFWCSISYYELNQRVGETFHASQPSMTVDGFTDPSNSERFCLGLLSNVNRNAAVELTRRHIGRGVRLYYIGGEVFAECLSDSAIFVQSPNCNQRYGWHPATVCKIPPGCNLKIFNNQEFAALLAQSVNQGFEAVYQLTRMCTIRMSFVKGWGAEYRRQTVTSTPCWIELHLNGPLQWLDKVLTQMGSPSIRCSSVS
	6	Renilla luciferase-Smad3 wild type, without Alk5 (not phosphorylated), P84022 1-425 (natural protein) MSSILPFTPPIVKRLLGWKKGEQNGQEEKWCEKAVKSLVKKLKKTGQLDELEKAITTQNVNTKCITIPRSLDGRLQVSHRKGLPHVIYCRLWRWPDLHSHHELRAMELCEFAFNMKKDEVCVNPYHYQRVETPVLPPVLVPRHTEIPAEFPPLDDYSHSIPENTNFPAGIEPQSNIPETPPPGYLSEDGETSDHQMNHSMDAGSPNLSPNPMSPAHNNLDLQPVTYCEPAFWCSISYYELNQRVGETFHASQPSMTVDGFTDPSNSERFCLGLLSNVNRNAAVELTRRHIGRGVRLYYIGGEVFAECLSDSAIFVQSPNCNQRYGWHPATVCKIPPGCNLKIFNNQEFAALLAQSVNQGFEAVYQLTRMCTIRMSFVKGWGAEYRRQTVTSTPCWIELHLNGPLQWLDKVLTQMGSPSIRCSSVS
